What is called Ki is the equilibrium dissociation constant of an inhibitor or competing ligand from its target.

In the assay the target is 'Empty' HLA-DR1 purified from insect cells expressing recombinant DR1 cDNA (human).

B1: Ii 97-111 (peptide)
peptide: LPKPPKPVSKMRMAT
As for B1, the Ki is more than 10000 nM.

B2: Bovine Fetuin 56-72 (peptide)
peptide: YKHTLNQIDSVKVWPRR
For the molecule B2, the Ki turned out to be 66 nM.

B3: Na+/K+ ATPase 199-216 (peptide)
peptide: IPADLRIISANGCKVDNS
As for B3, the Ki worked out at 68 nM.

B4: Pseudo HLA-A2 103-117 (peptide)
peptide: VGSDWRFLRGYHQYA
Regarding B4, the Ki stood at 49 nM.

B5: β2m 52-64 (peptide)
peptide: SDLSFSKDWSFYL
As to B5, the Ki is more than 10000 nM.

B6: Transferrin Recpt. 680-696 (peptide)
peptide: RVEYHFLSPYVSPKESP
As to B6, the Ki was less than 10 nM.

B7: Invariant Chain (Ii) 107-121 (peptide)
peptide: KMRMATPLLMQALPM
As to B7, the Ki was less than 10 nM.

These data come from patent US6509033 (Harvard, dated 2003).
